This note sets out measurements from paper PMC7269092.

The target in this assay is NLuc-NS2B-E66stop (DENV2). The assay is described as follows: split reporter.

With “MBP-NS3 (from UniProt P29990 1476-2093) (enzyme)”, the 50% inhibitory concentration (IC50) came out at 2500 nM. This counts as single-digit micromolar.

As usually defined, the IC50 is the concentration that inhibits the measured activity by half. A higher IC50 goes with a need for much substance.
